The record followed here is patent US20050239072, “Device and methods for concentrating prion protein isoforms” (published 2005).

Series [1] has as its target T1, human recombinant prion protein hrPrP (PrP23-231) (Homo sapiens, UniProt P04156 P04156:23-231). The series can be described thus: FP filter. To be noted: tags: E. coli GST fusion, GST removed by thrombin cleavage; label: 32P internal.
In series [2] the target is T1, human recombinant prion protein hrPrP …. The series can be described thus: FP filter; no tRNA; 250 mM NaCl, 2 mM MgCl2, 37 C. The settings on record: tags: E. coli GST fusion, GST removed by thrombin cleavage.
Series [3] shares this target. In words: pulldown. To be noted: tags: E. coli GST fusion, GST removed by thrombin cleavage; label: none; hybridized to oligo-dT-cellulose.
The target in series [4] is human recombinant PrP90-231 (lacks N-terminal 23-90) (Homo sapiens, UniProt P04156 P04156:90-231).

B1: MNV:AP1 (ssRNA)
RNA: GGGUUCAUAGCCUAUUCGGCUUCGCGCAUGGGAAUUUGAGGGACGAUGGGGAAGUGGGAGCGCGUUUUAAAGGACCUUUUUCCCUCGCGUAGCUAGCUACGCGAGGUGACCCCCCGAAGGGGGGUGCCCC
B1: the Kd (in general, a measure of binding affinity in units of concentration) in series [1] was 0.0038 µM.

B2: RQT157 (ssRNA)
RNA: GGGGUUUCGAACCGGAAUUUGAGGGAUGCCUAGGCAUCCCCCGUGCGUCCCUUUACGAGGGAUUGUCGACUCUAGAGGAUCCGGUACCUGAGGGAUGCCUAGGCAUCCCCGCGCGCCGGUUUCGGACCUCCAGUGCGUGUUACCGCACUGUCGACCC
On to B2, for which the Kd in series [2] (label: 32P internal) stood at 0.056 µM.

B3: RQAAA (RQ11+12 with 3' poly-A15) (ssRNA)
RNA: GGGGUUUCCAACCGGAAUUUGAGGGAUGCCUAGGCAUCCCCCGUGCGUCCCUUUACGAGGGAUUGUCGACUCUAGUCGACGUCUGGGCGAAAAAUGUACGAGAGGACCUUUUCGGUACAGACGGUACCUGAGGGAUGCCUAGGCAUCCCCGCGCGCCGGUUUCGGACCUCCAGUGCGUGUUACCGCACUGUCGACCCAAAAAAAAAAAAAAA
Turning to B3, the binding result in series [3] was “binds”.

B4: RQ11+12 (ssRNA)
RNA: GGGGUUUCCAACCGGAAUUUGAGGGAUGCCUAGGCAUCCCCCGUGCGUCCCUUUACGAGGGAUUGUCGACUCUAGUCGACGUCUGGGCGAAAAAUGUACGAGAGGACCUUUUCGGUACAGACGGUACCUGAGGGAUGCCUAGGCAUCCCCGCGCGCCGGUUUCGGACCUCCAGUGCGUGUUACCGCACUGUCGACCC
In the case of B4, the binding result in series [4] is reported as “no binding”. In series [2] (label: 32P internal (alpha-32P CTP)), the dissociation constant Kd amounted to 0.026 µM.
